We go through 3 molecules from US20140134176A1 (Pfizer, published 2014).

The target in assay [1] is T1, rat PDGF-BB (rat, UniProt Q05028 74-182).
T1 construct: also called ratBB
The assay can be described thus: SPR (Biacore 2000), antibody captured via anti-human IgG, PDGF injected. As for the experimental part: (§1) Anti-human (A-D, I-K) or anti-mouse (E-H) IgG antibodies were immobilized in flow cells of CM5 sensor chips. 1 μg/mL of MOR8457-IKR-hIgG1-3m (A-D), MOR8457-mIgG1 (E-H) or MOR8457-GL-hIgG1-3m (I-K) was injected independently over the respective anti-human or anti-mouse surface for 10 seconds resulting in a stable anti-PDGF surface between 50-100 RU. Different concentration of PDGF proteins, 0.25, 0.5, and 1 nM, was then injected over the antibody surface for 2 minutes at a flow rate of 100 μl/min for binding. The complex was allowed to dissociate for 10 minutes. The surface was regenerated with a 30 second injection of 10 mM magnesium chloride leaving the surface ready for another round of anti-PDGF antibody capture and PDGF binding kinetics. Each of these three antibodies bound tightly to human (A, E, I), mouse (B, F, J) and rat (C, G, K) PDGF-BB. MOR8457-IKR-hIgG1-3m (D) and MOR8457-mIgG1 (H) bound to human PDGF-AB. Each sensorgram shown is one representative of three independent experiments.
(§2) In order to test the specificity and cross species reactivity, the binding affinities of three MOR8457 IgG variants, MOR8457-IKR-hIgG1-3m, MOR8457-mIgG1, and MOR8457-GL-hIgG1-3m, to different human PDGF ligands, including human PDGF-AA, -AB, -DD, as well as rat PDGF-BB (all obtained from R&D systems, Minneapolis, Minn.) and mouse PDGF-BB (Invitrogen, Carlsbad, Calif.) were tested. Briefly, anti-human or anti-mouse IgG (GE Healthcare) antibodies were immobilized in adjacent flow cells of a CM5 sensor chip between 8000-10,000 resonance units (RU) using amine coupling as directed by the manufacturer. Antibodies were diluted into PBS-NET (10 mM Phosphate pH 7.4, 287 mM NaCl, 2.7 mM KCl, 3.2 mM EDTA, 0.01% Tween 20) to 1 μg/mL and injected independently over the respective anti-human or anti-mouse surface for 10 seconds resulting in a stable anti-PDGF surface between 50-100 RU. PDGF proteins were diluted to 1 nM in PBS-NET and serially diluted two-fold to 0.25 nM. Each concentration of PDGF was then injected over the antibody surface for 2 minutes at a flow rate of 100 μl/min. The complex was allowed to dissociate for 10 minutes. The surface was regenerated with a 30 second injection of 10 mM magnesium chloride leaving the surface ready for another round of anti-PDGF antibody capture and PDGF binding kinetics.

Assay [2] deals with T2, mouse PDGF-BB (mouse, UniProt P31240 82-190).
T2 construct: also called muBB; Mu PDGF-BB
The description is as above. As for the experimental part: as §1, §2

Assay [3] has as its target T3, human PDGF-BB (human, UniProt P01127 82-190).
T3 construct: Recombinant human PDGF-BB homodimer, bought (Biosource PHG0043; R&D Systems); also called hPDGF-BB; huBB
The description is as above. How it is done: as §1, §2

The target in assay [4] is T3, human PDGF-BB. Description: cell-based or functional assay.
Assay [5] addresses T1, rat PDGF-BB. Description: SPR (Biacore 3000), antibody captured via anti-human IgG, PDGF injected. How it is done:
(§3) FIG. 20, comprising panels A through D, depicts Biacore sensorgrams showing the binding kinetics of MOR8457-16 to different PDGF isoforms. MOR8457-16 was captured onto CM5 chips using an anti-human IgG antibody. The binding kinetics of each PDGF isoform was assessed by flowing different concentrations of each PDGF isoform over the captured MOR8457-16 surface. The concentrations of Hu-PDGF-BB (A) and Mu-PDGF-BB (C) were 0.25, 0.5, and 1 nM, and the concentrations for Hu-PDGF-AB (B) and Rat-PDGF-BB (D) were 0.5 and 1 nM. Each sensorgram is one representative of two independent experiments. Kinetics data were double referenced and fit using Biacore evaluation software version 4.1.
(§4) The binding affinities of MOR8457-16 to different PDGF isoforms were determined as previously described (Example 6) using a Biacore 3000 (GE Healthcare, Piscataway N.J.). Briefly, an anti-human IgG (GE Healthcare) antibody was immobilized in flow cells of a CM5 sensor chip between 8,000-10,000 resonance units (RU) using amine coupling as directed by the manufacturer. Test antibodies were diluted into PBS-NET (10 mM Phosphate pH 7.4, 287 mM NaCl, 2.7 mM KCl, 3.2 mM EDTA, 0.01% Tween-20) to 0.5 ug/mL and injected over the anti-human antibody surface for 30 seconds resulting in a stable anti-PDGF surface between 82-122 RU. PDGF proteins were diluted to 1 nM in PBS-NET and serially diluted two-fold to 0.25 nM. Each concentration of PDGF was then injected over the antibody surface for 2 minutes at a flow rate of 100 ul/min. The complex was allowed to dissociate for 10 minutes. The surface was regenerated with a 30 second injection of 3M magnesium chloride leaving the surface ready for another round of anti-PDGF antibody capture and PDGF binding kinetics. Kinetic data was double referenced (D. G. Myszka et al., J. Mol. Recognit. 12:279, 1999) using Scrubber2 software (Bio-Logic Software), then fit to a 1:1 binding model using Biacore evaluation software version 4.1. Protein concentrations of all PDGF isoforms were corrected with active concentrations determined under the condition of limiting mass transport (Karlsson et al., METHODS: A companion to Methods in Enzymology 6:99-110, 1994). Results shown were averages of two independent binding studies.

The target in assay [6] is T2, mouse PDGF-BB. The assay is described as above. How it is done:
as §3, §4

Assay [7] addresses T4, human PDGF-AB (human, UniProt P04085 87-211, limits assumed).
T4 construct: Heterodimer of PDGF-A and PDGF-B, bought; also called huAB; Hu PDGF-AB
The description is as above. How it is done:
as §3, §4

The target in assay [8] is T3, human PDGF-BB. The description is as above. As for the experimental part:
as §3, §4

Assay [9] concerns the target T4, human PDGF-AB. Description: SPR (Biacore 2000), antibody captured via anti-human IgG, PDGF injected. How it is done: as §1, §2
Assay [10] addresses T4, human PDGF-AB. The assay can be described thus: SPR (Biacore). As for the experimental part: as §2, with “kinetics. […]” for “kinetics.”
Assay [11] has as its target human PDGF-AA (human, UniProt P04085 87-211, limits assumed). Description: SPR (Biacore), antibody captured. How it is done:
as §2, with “kinetics. Kinetic data were double referenced (Myszka et al., 1999, J. Mol. Recognit. 12 279) using scrubber2 software (Bio-Logic Software), then fit to a 1:1 binding model using Biacore evaluation software version 4.1. The results shown were an average of three independent binding studies.” for “kinetics.”

Assay [12] has as its target human PDGF-DD (human, UniProt Q9GZP0 250-370, limits assumed). Description: SPR (Biacore), antibody captured. How it is done:
as §2, with “kinetics. Kinetic data were double referenced (Myszka et al., 1999, J. Mol. Recognit. 12 279) using scrubber2 software (Bio-Logic Software), then fit to a 1:1 binding model using Biacore evaluation software version 4.1. The results shown were an average of three independent binding studies.” for “kinetics.”

T2 sequence (P31240 82-190 limits assumed): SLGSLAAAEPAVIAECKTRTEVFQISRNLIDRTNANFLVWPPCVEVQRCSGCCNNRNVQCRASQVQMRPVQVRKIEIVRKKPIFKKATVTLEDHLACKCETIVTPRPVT
T1 sequence (Q05028 74-182 limits assumed): as the sequence (P31240 82-190 limits assumed) above, with I83V, I102V counted along it
T3 sequence (P01127 82-190 limits assumed): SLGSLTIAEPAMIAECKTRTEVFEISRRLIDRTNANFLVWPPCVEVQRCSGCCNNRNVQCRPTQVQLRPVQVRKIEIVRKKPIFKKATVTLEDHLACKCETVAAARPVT
T4 sequence (chain, as listed by the source limits assumed, chain 2 of 2, other chains not shown): as the sequence (P01127 82-190 limits assumed) above
Sequence of human PDGF-DD (Q9GZP0 250-370 limits assumed): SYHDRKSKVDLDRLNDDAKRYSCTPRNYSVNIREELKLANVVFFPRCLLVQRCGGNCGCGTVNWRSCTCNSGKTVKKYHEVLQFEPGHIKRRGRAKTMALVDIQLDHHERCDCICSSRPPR

B1: MOR8457-GL-hIgG1-3m (antibody, V domains shown)
VH: EVQLLESGGGLVQPGGSLRLSCAASGFTFSSYAMSWVRQAPGKGLEWVSYISDDGSLKYYADSVKGRFTISRDNSKNTLYLQMNSLRAEDTAVYYCAKHPYWYGGQLDLWGQGTLVTVSS
VL: SYELTQPPSVSVSPGQTASITCSGDSLGSYFVHWYQQKPGQSPVLVIYDDSNRPSGIPERFSGSNSGNTATLTISGTQAMDEADYYCSAFTHNSDVFGGGTKLTVLG
notes: Germlined VH and VL, human IgG1-3m, wild type human lambda
With B1, in assay [1], the Kd was 15 pM, the koff is 0.00024 s⁻¹ and the kon is 1.7e+07 M⁻¹ s⁻¹. In assay [2], this molecule came in with a Kd of 4 pM, a koff of 0.0002 s⁻¹ and a kon of 5.3e+07 M⁻¹ s⁻¹. In [3], this molecule registered a Kd of 13 pM, a koff of 0.00019 s⁻¹ and a kon of 1.5e+07 M⁻¹ s⁻¹. For the same molecule, the “IC50, inhibition of PDGF-BB (2.5 ng/ml) stimulated mesangial cell proliferation” value in assay [4] was found to be 20 pM.

B2: MOR8457-16 (antibody, human IgG1, lambda, V domains shown)
VH: EVQLLQSGGGLVKPGGSLRLSCAASGFTFSSYAMSWVRQAPGKGLEWVSYISDDGSLKYYADSVKGRFTISRDNSKNTLYLQMNSLRAEDTAVYYCARHPYWYGGQLDLWGQGTLVTVSS
VL: SYELTQPPSVSVSPGQTASITCSGDSLGSYFVHWYQQKPGQSPVLVIYDDSKRPSGIPERFSGSNSGNTATLTISGTQAMDEADYYCSAFTHNSDVFGGGTKLTVLG
notes: Engineered variant of MOR8457-GL: heavy E6Q, Q13K; light N53K (Kabat); human IgG1-3m; also called MOR8547-16
Regarding B2, the Kd is 8.88 pM in assay [5], 8.62 pM in [6], roughly 8.02 pM in assay [7] and 9.75 pM in assay [8]. Besides, the koff was 0.000114 s⁻¹ in [5], 0.00018 s⁻¹ in assay [6], less than 1e-05 s⁻¹ in assay [7] and 0.000169 s⁻¹ in assay [8]. Further, the kon in assay [5] was determined as 1.29e+07 M⁻¹ s⁻¹; in assay [6], 2.16e+07 M⁻¹ s⁻¹; in assay [7], 3.39e+06 M⁻¹ s⁻¹; in [8], 1.73e+07 M⁻¹ s⁻¹. The “IC50, inhibition of PDGF-BB (2.5 ng/ml) stimulated mesangial cell proliferation” value in assay [4] came out at 14 pM.

B3: MOR8457-IKR-hIgG1-3m (antibody)
heavy: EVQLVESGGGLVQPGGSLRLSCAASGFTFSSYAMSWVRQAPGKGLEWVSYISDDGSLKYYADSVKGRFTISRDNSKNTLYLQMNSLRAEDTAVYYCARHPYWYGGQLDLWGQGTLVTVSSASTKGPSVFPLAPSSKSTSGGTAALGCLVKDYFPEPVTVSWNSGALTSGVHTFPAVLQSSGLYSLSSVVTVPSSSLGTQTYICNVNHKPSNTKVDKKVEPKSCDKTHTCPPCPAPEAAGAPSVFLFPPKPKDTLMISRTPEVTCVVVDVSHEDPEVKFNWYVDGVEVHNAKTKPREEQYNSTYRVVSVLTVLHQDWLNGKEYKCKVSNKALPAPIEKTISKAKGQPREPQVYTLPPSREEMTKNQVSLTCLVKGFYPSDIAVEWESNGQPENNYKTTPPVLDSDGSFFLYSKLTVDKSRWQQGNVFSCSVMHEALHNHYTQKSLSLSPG
light: SYELTQPPSVSVAPGQTARISCSGDSLGSYFVHWYQQKPGQAPVLVIYDDSNRPSGIPERFSGSNSGNTATLTISGTQAEDEADYYCSAFTHNSDVFGGGTKLTIKRQPKAAPSVTLFPPSSEELQANKATLVCLISDFYPGAVTVAWKADSSPVKAGVETTTPSKQSNNKYAASSYLSLTPEQWKSHRSYSCQVTHEGSTVEKTVAPTECS
notes: also called MOR8457-IKR-IgG1-3m
With B3, the dissociation constant Kd is 25 pM in assay [1], 10 pM in [2], 69 pM in assay [9] and 28 pM in [3]. The koff stood at 0.000447 s⁻¹ in assay [1], 0.000293 s⁻¹ in assay [2], 0.00045 s⁻¹ in assay [9] and 0.000362 s⁻¹ in assay [3]. Further, the kon in assay [1] amounted to 1.77e+07 M⁻¹ s⁻¹; in [2], 2.95e+07 M⁻¹ s⁻¹; in [9] it was 6.5e+06 M⁻¹ s⁻¹; in assay [3] it was 1.27e+07 M⁻¹ s⁻¹. Besides, in assay [10], the “fold reduction in binding against PDGF-BB” value is roughly 3 fold. Further, the binding result in assay [11] and in [12] was “no binding (tested: 0.25-1 nM PDGF)” each time. Besides, the “IC50, inhibition of PDGF-BB induced human mesangial cell proliferation (BrdU incorporation)” value in assay [4] was 13.4 pM.
